Tests used:
[1] = target: human FGFR3 (isoform and construct not stated) (human) (UniProt P22607); assay: Scatchard analysis, radioiodinated antibody cell binding; OPM2 cells
[2] = target: human FGFR3 (isoform and construct not stated) (human) (UniProt P22607); assay: Scatchard analysis, radioiodinated antibody cell binding; UMUC-14 cells
[3] = target: human FGFR3 (isoform and construct not stated) (human) (UniProt P22607); assay: Scatchard analysis, radioiodinated antibody cell binding; KMS11 cells
[4] = target: human FGFR3 (isoform and construct not stated) (human) (UniProt P22607); assay: Scatchard analysis, radioiodinated antibody cell binding; RT112 cells
[5] = target: human FGFR3 (isoform and construct not stated) (human) (UniProt P22607); assay: cell-based or functional assay
[6] = target: T1, His-tagged IgD2-D3 of human FGFR3-IIIb (human, UniProt P22607-2 143-374, limits assumed); assay: BIAcore SPR; antibody on CM5 chip, FGFR3-His protein injected
T1 construct: domain: IgD2-D3; also called FGFR3-IIIb-His protein; Human FGFR3 ECD IIIb; not shown: His tag
T1 sequence (looked up): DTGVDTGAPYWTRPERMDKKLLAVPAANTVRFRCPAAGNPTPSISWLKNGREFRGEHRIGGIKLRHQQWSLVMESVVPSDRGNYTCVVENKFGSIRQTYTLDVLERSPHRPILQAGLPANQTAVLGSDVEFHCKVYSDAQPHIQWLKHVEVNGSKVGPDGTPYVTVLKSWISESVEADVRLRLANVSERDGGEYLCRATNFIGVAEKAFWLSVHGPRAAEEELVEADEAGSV

[7] = target: T2, His-tagged IgD2-D3 of human FGFR3-IIIc (human, UniProt P22607 143-372); assay: as above
T2 construct: domain: IgD2-D3; also called FGFR3-IIIC-His protein; IIIc-His protein; not shown: His tag
T2 sequence: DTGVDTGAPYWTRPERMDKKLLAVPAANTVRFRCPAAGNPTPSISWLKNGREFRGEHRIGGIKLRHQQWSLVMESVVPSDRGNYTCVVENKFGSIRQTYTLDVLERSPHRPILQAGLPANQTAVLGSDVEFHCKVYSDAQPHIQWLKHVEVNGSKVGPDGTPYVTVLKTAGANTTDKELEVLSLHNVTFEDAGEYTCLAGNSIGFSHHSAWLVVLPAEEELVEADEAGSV

[8] = target: T2, His-tagged IgD2-D3 of human FGFR3-IIIc; assay: BIAcore SPR; R3 Ab on the chip, FGFR3-IIIc-His protein injected, 25 C
[9] = target: T3, human FGFR3-IIIc ECD-human Fc chimeric protein (human, UniProt P22607 23-375); assay: competition ELISA; FGFR3-IIIc-Fc captured, antibody titrated, then FGF9 and heparin; competitor FGF9
T3 construct: extracellular domain; Made in CHO cells, purified on protein A; also called FGFR3-Fc chimeric protein; not shown: human Fc
T3 sequence (looked up): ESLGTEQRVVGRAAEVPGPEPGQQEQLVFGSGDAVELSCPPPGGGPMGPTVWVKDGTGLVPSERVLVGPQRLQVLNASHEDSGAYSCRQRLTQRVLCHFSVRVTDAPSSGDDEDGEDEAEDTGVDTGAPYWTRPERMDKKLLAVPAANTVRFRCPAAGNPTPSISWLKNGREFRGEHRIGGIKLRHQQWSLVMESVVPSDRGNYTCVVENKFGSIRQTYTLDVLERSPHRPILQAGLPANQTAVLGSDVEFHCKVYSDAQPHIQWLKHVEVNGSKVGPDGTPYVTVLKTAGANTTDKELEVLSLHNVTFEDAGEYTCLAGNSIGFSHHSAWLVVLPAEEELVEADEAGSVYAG

[10] = target: T3, human FGFR3-IIIc ECD-human Fc chimeric …; assay: competition ELISA; FGFR3-IIIc-Fc captured, antibody titrated, then FGF1 and heparin; competitor FGF1

## R3Mab
[1]
  Kd: 0.64 nM
[2]
  Kd: 0.34 nM
[3]
  Kd: 0.35 nM
[4]
  Kd: 0.16 nM

B1: anti-FGFR3 antibody clone 184.6.1 (antibody, V domains shown)
VH: EVQLVESGGGLVQPGGSLRLSCAASGFTFTSTGISWVRQAPGKGLEWVGRIYPTNGSTNYADSVKGRFTISADTSKNTAYLQMNSLRAEDTAVYYCARARTYGIYDLYVDYTEYVMDYWGQGTLV
VL: DIQMTQSPSSLSASVGDRVTITCRASQDVDTSLAWYQQKPGKAPKLLIYSASFLYSGVPSRFSGSGSGTDFTLTISSLQPEDFATYYCQQSTGHPQTFGQGTKVEIKR
[5]
  increased inhibitory activity in the Ba/F3-FGFR3 viability assay (fold greater than parent clone 184.6): 100
[6]
  Kd: 0.264 nM
[7]
  Kd: 1.44 nM

B2: anti-FGFR3 antibody clone 184.6.58 (antibody, V domains shown)
VH: EVQLVESGGGLVQPGGSLRLSCAASGFTFTSTGISWVRQAPGKGLEWVGRIYPTNGSTNYADSVKGRFTISADTSKNTAYLQMNSLRAEDTAVYYCARARTYGIYDLYVDYTEYVMDYWGQGTLV
VL: DIQMTQSPSSLSASVGDRVTITCRASQDVDISLAWYQQKPGKAPKLLIYSASSLASGVPSRFSGSGSGTDFTLTISSLQPEDFATYYCQQGAGNPYTFGQGTKVEIKR
[5]
  increased inhibitory activity in the Ba/F3-FGFR3 viability assay (fold greater than parent clone 184.6): 100
[6]
  Kd: 0.19 nM
[7]
  Kd: 0.88 nM

B3: anti-FGFR3 antibody clone 184.6.1N54S (antibody, V domains shown)
VH: EVQLVESGGGLVQPGGSLRLSCAASGFTFTSTGISWVRQAPGKGLEWVGRIYPTSGSTNYADSVKGRFTISADTSKNTAYLQMNSLRAEDTAVYYCARARTYGIYDLYVDYTEYVMDYWGQGTLV
VL: DIQMTQSPSSLSASVGDRVTITCRASQDVDTSLAWYQQKPGKAPKLLIYSASFLYSGVPSRFSGSGSGTDFTLTISSLQPEDFATYYCQQSTGHPQTFGQGTKVEIKR
[8]
  Kd: 3.52 nM
  koff: 0.00032 s⁻¹
  kon: 91000 M⁻¹ s⁻¹
[9]
  IC50: 1.3 nM
[10]
  IC50: 1.7 nM

B4: anti-FGFR3 antibody clone 184.6 (antibody, V domains shown)
VH: EVQLVESGGGLVQPGGSLRLSCAASGFTFTSTGISWVRQAPGKGLEWVGRIYPTNGSTNYADSVKGRFTISADTSKNTAYLQMNSLRAEDTAVYYCARARTYGIYDLYVDYTEYVMDYWGQGTLV
VL: DIQMTQSPSSLSASVGDRVTITCRASQDVSTAVAWYQQKPGKAPKLLIYSASFLYSGVPSRFSGSGSGTDFTLTISSLQPEDFATYYCQQSYTTPPTFGQGTKVEIKR
notes: The tie to the clone name is indirect
[6]
  Kd: 38 nM
[7]
  Kd: 110 nM

B5: anti-FGFR3 antibody clone 184.6.62 (antibody, V domains shown)
VH: EVQLVESGGGLVQPGGSLRLSCAASGFTFSTTGISWVRQAPGKGLEWVGRIYPLYGSTHYADSVKGRFTISADTSKNTAYLQMNSLRAEDTAVYYCARARTYGIYDLYVDYTEYVMDYWGQGTLV
VL: DIQMTQSPSSLSASVGDRVTITCRASQDVSTAVAWYQQKPGKAPKLLIYSASFLYSGVPSRFSGSGSGTDFTLTISSLQPEDFATYYCQQTYTTSLTFGQGTKVEIKR
[5]
  increased inhibitory activity in the Ba/F3-FGFR3 viability assay (fold greater than parent clone 184.6): 100
[6]
  Kd: 0.12 nM
[7]
  Kd: 2.24 nM
